Laboratory results as given in IntAct's records for PubMed 19632184.

Target: mare1_human MAPRE1 (UniProt Q15691)
Sequence (Q15691 whole entry): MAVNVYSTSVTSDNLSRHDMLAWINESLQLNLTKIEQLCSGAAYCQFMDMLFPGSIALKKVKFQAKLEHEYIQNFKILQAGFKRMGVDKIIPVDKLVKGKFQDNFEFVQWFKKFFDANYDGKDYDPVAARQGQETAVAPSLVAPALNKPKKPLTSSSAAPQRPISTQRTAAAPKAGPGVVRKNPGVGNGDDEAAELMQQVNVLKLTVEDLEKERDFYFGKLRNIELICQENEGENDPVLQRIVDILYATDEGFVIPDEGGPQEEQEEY

Dystonin (Homo sapiens), Q03001 I7552N;P7553N
effect of a mutation on the interaction: decreasing interaction
